Common to all, as to type: tissue-based
Compound in series [1]: CC(CC(=O)Nc1nnc(-c2cccc(Cl)c2)s1)CC(C)(C)C
Nature of the series: (§1) Inhibition of albino mouse brain AChE assessed as Km for substrate using acetylthiocholine iodide as substrate measured for 2 mins by Ellmans method. Background: Ellman's reagent forms a yellow product with free thiols.

Compound in series [2]: O=C(Nc1nnc(Cc2ccccc2)s1)c1cccc(CCl)c1
Described as §1.

Compound in series [3]: O=C(Nc1nnc(-c2ccccc2Cl)s1)c1cccc(CCl)c1
The series is described as §1.

Compound in series [4]: CC(=O)Oc1cccc(C(=O)Nc2nnc(-c3ccccc3)s2)c1
The description is as §1.

Compound in series [5]: Cc1ccc(-c2nnc(NC(=O)c3cc(C(F)(F)F)cc(C(F)(F)F)c3)s2)cc1
Described as §1.

Compound in series [6]: CC(CC(=O)Nc1nnc(Cc2ccccc2)s1)CC(C)(C)C
The description is as §1.

Compound in series [7]: CC(=O)Oc1cccc(C(=O)Nc2nnc(-c3ccccc3Cl)s2)c1
The series is described as §1.

Compound in series [8]: CC(=O)Oc1cccc(C(=O)Nc2nnc(-c3ccc(C)cc3)s2)c1
The description is as §1.

Compound in series [9]: CC(CC(=O)Nc1nnc(-c2ccccc2)s1)CC(C)(C)C
The description is as §1.

Compound in series [10]: O=C(Nc1nnc(-c2ccccc2)s1)c1cccc(CCl)c1
Described as §1.

Compound in series [11]: O=C(Nc1nnc(-c2ccccc2Cl)s1)c1cc(C(F)(F)F)cc(C(F)(F)F)c1
Described as §1.

Compound in series [12]: CC(=O)Oc1cccc(C(=O)Nc2nnc(Cc3ccccc3)s2)c1
The series is described as §1.

Compound in series [13]: Cc1ccc(-c2nnc(NC(=O)c3cccc(CCl)c3)s2)cc1
Described as §1.

Compound in series [14]: Cc1ccc(-c2nnc(NC(=O)CC(C)CC(C)(C)C)s2)cc1
The series is described as §1.

In general, Km refers to the substrate concentration at which the rate is half of its maximum.

B1: Acetylcholinesterase (Mus musculus), P21836 (protein)
chain: MRPPWYPLHTPSLAFPLLFLLLSLLGGGARAEGREDPQLLVRVRGGQLRGIRLKAPGGPVSAFLGIPFAEPPVGSRRFMPPEPKRPWSGVLDATTFQNVCYQYVDTLYPGFEGTEMWNPNRELSEDCLYLNVWTPYPRPASPTPVLIWIYGGGFYSGAASLDVYDGRFLAQVEGAVLVSMNYRVGTFGFLALPGSREAPGNVGLLDQRLALQWVQENIAAFGGDPMSVTLFGESAGAASVGMHILSLPSRSLFHRAVLQSGTPNGPWATVSAGEARRRATLLARLVGCPPGGAGGNDTELIACLRTRPAQDLVDHEWHVLPQESIFRFSFVPVVDGDFLSDTPEALINTGDFQDLQVLVGVVKDEGSYFLVYGVPGFSKDNESLISRAQFLAGVRIGVPQASDLAAEAVVLHYTDWLHPEDPTHLRDAMSAVVGDHNVVCPVAQLAGRLAAQGARVYAYIFEHRASTLTWPLWMGVPHGYEIEFIFGLPLDPSLNYTTEERIFAQRLMKYWTNFARTGDPNDPRDSKSPQWPPYTTAAQQYVSLNLKPLEVRRGLRAQTCAFWNRFLPKLLSATDTLDEAERQWKAEFHRWSSYMVHWKNQFDHYSKQERCSDL
For the protein B1, the Km was 17.7 µM in [1]; 12.9 µM in [2]; 15.3 µM in [3]; 1.37 µM in [4]; 4.89 µM in series [5]; 24.9 µM in series [6]. Further, the Km in series [7] turned out to be 16 µM; in series [8] it was 8.01 µM; in [9], 9.09 µM; in series [10], 16.4 µM; in [11] it was 2.35 µM; in series [12], 4.47 µM. Besides, the Km came out at 1.9 µM in series [13] and 7.86 µM in [14].

For the origin of these results see ChEMBL document CHEMBL3865823, “Ameliorative effects of amide derivatives of 1,3,4-thiadiazoles on scopolamine induced cognitive dysfunction” (Eur J Med Chem, 2016).
